Source: patent US20090186040A1 (published 2009)

Target: T1, BLyS (B-lymphocyte stimulator) (UniProt Q9Y275 134-285)
T1 construct: Endogenous BLyS in the serum of human SLE patients; The complex with atacicept was detected by sandwich ELISA
Assay: ELISA of atacicept/BLyS complex in serum of dosed SLE patients (subcutaneous, Study 1)
Description: Pharmacokinetics were assessed by measuring serum levels of free atacicept (Table 2a), atacicept/BLyS complex (Table 3a), and composite atacicept (defined as free atacicept+atacicept-BLyS complex, Table 4a). Serum levels of each of these were quantified using an enzyme-linked immunosorbant assay. Serum was incubated with a biotin-conjugated mouse mAb specific for atacicept (free or total atacicept detection) (ZymoGenetics, Inc., Seattle, Wash.) or biotin-conjugated goat polyclonal antibodies specific for either BLyS or atacicept (atacicept/BLyS complex detection) (R & D Systems, Minneapolis, Minn.), immobilized on a streptavidin-coated microplate (Adaltis, Montreal, Quebec). […] In all three assays, atacicept serum levels were detected and quantified using standard […] methods, i.e., after washing tetramethylbenzidine (TMB) was added as HRP substrate (Sigma-Aldrich, St. Louis, Mo.). The reaction was halted after 20 minutes using 0.5 M sulfuric acid and the absorbance recorded at 450 nm. […] All samples were measured in triplicate. […] The lower limits of quantification (LLOQ) of the assays were 15.6 ng/mL for free atacicept, 5 U/mL for atacicept-BLyS complex (1 U/mL corresponding to 1.82 ng/mL atacicept-0.44 ng/mL BLyS in a 3:1 molar ratio), and 25 ng/mL for the composite analytes. […]

T1 sequence (Q9Y275 134-285 limits assumed): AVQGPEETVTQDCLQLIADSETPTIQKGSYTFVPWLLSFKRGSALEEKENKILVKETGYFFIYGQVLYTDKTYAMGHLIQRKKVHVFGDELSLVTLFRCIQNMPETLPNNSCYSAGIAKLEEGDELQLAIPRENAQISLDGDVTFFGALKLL

B1: atacicept (Fc fusion)
chain: AMRSCPEEQYWDPLLGTCMSCKTICNHQSQRTCAAFCRSLSCRKEQGKFYDHLLRDCISCASICGQHPKQCAYFCENKLRSEPKSSDKTHTCPPCPAPEAEGAPSVFLFPPKPKDTLMISRTPEVTCVVVDVSHEDPEVKFNWYVDGVEVHNAKTKPREEQYNSTYRVVSVLTVLHQDWLNGKEYKCKVSNKALPSSIEKTISKAKGQPREPQVYTLPPSRDELTKNQVSLTCLVKGFYPSDIAVEWESNGQPENNYKTTPPVLDSDGSFFLYSKLTVDKSRWQQGNVFSCSVMHEALHNHYTQKSLSLSPGK
modifications: Fc-linked homodimer in the drug; one chain is given.
notes: also called TACI-Ig; TACI-Fc5
Question: Does B1 bind?
Answer: binds
